Results: paper PMC9952896

What was measured:
HSP-CGFP [GFP: P42212] = test: split reporter (BiFC, NanoBiT); split-GFP reassembly competition assay, GFP variant sg100: E. coli T7 cells co-transformed with the NGFP plasmid, the CGFP plasmid and p17Tet with a competitor or p17Tet-stop; 0.5 mM IPTG and 2% arabinose, overnight to 72 h at 17 °C; fluorescence (arbitrary units) divided by OD600 of cells resuspended in PBS, triplicates
[1] = molecular target: XD-CGFP (not His-tagged) (measles virus | not stated) (UniProt P03422); test: as above
[2] = molecular target: HSP (hsp70) (Homo sapiens) (UniProt P0DMV8); details: cited from earlier work
UniProt P0DMV8, sequence (P0DMV8 2-641): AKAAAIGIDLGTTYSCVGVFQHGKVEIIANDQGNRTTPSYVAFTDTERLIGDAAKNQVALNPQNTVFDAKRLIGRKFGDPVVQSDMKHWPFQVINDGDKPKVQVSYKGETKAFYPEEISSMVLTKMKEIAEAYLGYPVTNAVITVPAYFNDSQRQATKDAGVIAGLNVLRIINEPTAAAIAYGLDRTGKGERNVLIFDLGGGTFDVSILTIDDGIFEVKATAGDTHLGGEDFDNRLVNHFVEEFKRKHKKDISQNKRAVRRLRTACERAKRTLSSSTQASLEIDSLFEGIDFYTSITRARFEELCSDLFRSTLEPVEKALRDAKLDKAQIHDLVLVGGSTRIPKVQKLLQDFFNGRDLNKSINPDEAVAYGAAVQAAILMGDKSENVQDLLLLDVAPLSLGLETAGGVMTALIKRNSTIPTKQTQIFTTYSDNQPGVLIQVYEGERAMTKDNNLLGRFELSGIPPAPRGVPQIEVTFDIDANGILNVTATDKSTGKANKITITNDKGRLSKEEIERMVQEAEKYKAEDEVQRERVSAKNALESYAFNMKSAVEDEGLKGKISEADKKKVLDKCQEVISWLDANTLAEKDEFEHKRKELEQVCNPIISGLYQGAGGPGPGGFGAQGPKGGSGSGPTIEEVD

With “NGFP alone (His-NGFP, from the construct NGFP-stop) (from UniProt P42212 1-157) (domain or fragment)” the fluorescence to OD600 ratio (arbitrary units/OD600) (HSP-CGFP [GFP: P42212]) was 200 and the fluorescence to OD600 ratio (arbitrary units/OD600) [1] was 200.
With “NGFP-471 (His-NGFP-471) (from UniProt P42212 1-157; P04851 471-525) (domain or fragment)” the fluorescence signal (fluorescence/OD600) (arbitrary units/OD600) (HSP-CGFP [GFP: P42212]) was 300.
In the case of “Nucleoprotein NTAIL NTAIL (from UniProt P35972)”, the Kd [2] is given as 70 µM.
